For this assay, the target named is human 26S proteasome (human) (UniProt O00487). The experiment in a line: single-molecule TIRF microscopy.
UniProt O00487, sequence (O00487 whole entry, looked up): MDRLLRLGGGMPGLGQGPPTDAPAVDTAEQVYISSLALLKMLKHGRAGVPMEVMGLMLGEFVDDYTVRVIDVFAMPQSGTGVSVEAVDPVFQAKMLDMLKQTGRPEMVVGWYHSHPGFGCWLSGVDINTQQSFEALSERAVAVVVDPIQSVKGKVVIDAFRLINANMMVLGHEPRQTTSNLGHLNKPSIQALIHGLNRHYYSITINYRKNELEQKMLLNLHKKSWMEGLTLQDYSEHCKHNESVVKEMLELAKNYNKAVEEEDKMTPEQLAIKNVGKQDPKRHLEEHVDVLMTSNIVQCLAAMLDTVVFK

Regarding K48-polyUb-GFP (from UniProt P0CG48), the half-life of the proteasome-substrate complex came to 2.82 s and the puncta density relative to pK48-polyUb-GFP stood at 5 fold.

Take pK48-polyUb-GFP (from UniProt P0CG48): the half-life of the proteasome-substrate complex stood at 0.73 s.

For the origin of these results see doi:10.1101/2023.08.10.552882.
